Laboratory results from paper PMC10617769, “Dietary potassium stimulates Ppp1Ca-Ppp1r1a dephosphorylation of kidney NaCl cotransporter and reduces blood pressure” (The Journal of Clinical Investigation, 2023).

Biological target: T1, recombinant α catalytic subunit of rabbit protein phosphatase 1 (Ppp1ca) (rabbit, UniProt P62139 1-330)
T1 construct: α catalytic subunit of protein phosphatase 1 (Ppp1ca), rabbit, recombinant; also called PP1A; Protein Phosphatase 1 Catalytic Subunit, α-isoform; source: bought: MilliporeSigma, P7937 (recombinant)
Experiment: pull-down; GST-(N) NCC or GST alone on glutathione-agarose beads with 2–10 μg recombinant phosphatase; 12- to 18-hour incubation in PBS with 0.5 mM TCEP at 4°C; bound protein detected by Western blotting
Conditions: both partners purified

T1 sequence (P62139 whole entry, canonical isoform): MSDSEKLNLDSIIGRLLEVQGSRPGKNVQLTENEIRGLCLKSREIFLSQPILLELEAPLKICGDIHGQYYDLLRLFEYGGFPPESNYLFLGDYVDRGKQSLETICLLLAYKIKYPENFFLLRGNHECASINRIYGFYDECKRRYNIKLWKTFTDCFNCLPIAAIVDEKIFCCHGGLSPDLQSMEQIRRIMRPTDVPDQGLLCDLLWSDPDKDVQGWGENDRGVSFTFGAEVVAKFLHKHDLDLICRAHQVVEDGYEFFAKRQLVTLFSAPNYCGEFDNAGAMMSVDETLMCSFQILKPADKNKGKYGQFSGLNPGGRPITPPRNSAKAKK

B1: GST fusion protein of the cytoplasmic amino terminus of rat NCC (amino acids 1-133) (domain or fragment, UniProt P55018 1-133, looked up)
chain: MAELPVTEMPGDALCSGRFTISTLLGGDEPPPAACDNSQPSHLTHGSTLYLRTFGYNTIDVVPAYEHYANSALPGEPRKVRPTLADLHSFLKQEGSHLHALAFDGRPGHELTDGLVEDETGANSEKSPGEPVR
notes: thiazide-sensitive sodium chloride cotransporter NCC (SLC12A3), rat, NP_062218, cytoplasmic amino terminus, amino acids 1-133; cloned into pGEX4T1; also called GST-NCC-(N); GST-(N) NCC; source: E. coli C43 (DE3), recovered by glutathione chromatography, kept on beads
Question: Does B1 bind?
Answer: binds
